Results reported in paper doi:10.1101/2024.03.23.586376 (bioRxiv, 2024).

Target: RagC (human (endogenous in H1HeLa), UniProt Q9HB90 1-399)
Test: co-IP

RagC, sequence (Q9HB90 whole entry): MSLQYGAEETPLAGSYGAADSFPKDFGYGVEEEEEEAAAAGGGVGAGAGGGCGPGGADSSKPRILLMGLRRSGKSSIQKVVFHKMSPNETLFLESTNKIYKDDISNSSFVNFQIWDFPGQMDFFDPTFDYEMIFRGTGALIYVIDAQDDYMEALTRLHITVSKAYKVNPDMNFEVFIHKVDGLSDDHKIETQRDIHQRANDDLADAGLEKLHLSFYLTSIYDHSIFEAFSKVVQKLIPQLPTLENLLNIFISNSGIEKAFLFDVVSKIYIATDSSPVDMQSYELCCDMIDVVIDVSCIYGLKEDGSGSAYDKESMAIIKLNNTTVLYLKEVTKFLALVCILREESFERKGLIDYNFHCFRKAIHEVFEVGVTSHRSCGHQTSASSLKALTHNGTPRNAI

| Binder | TFEB/RagC ratio in the co-IP (densitometry), EV-D68-infected cells | TFEB/RagC ratio in the co-IP (densitometry), mock-infected cells |
| --- | --- | --- |
| wild-type TFEB (transcription factor EB), C-terminal GFP-tagged construct (natural protein, UniProt P19484 1-476, looked up) MASRIGLRMQLMREQAQQEEQRERMQQQAVMHYMQQQQQQQQQQLGGPPTPAINTPVHFQSPPPVPGEVLKVQSYLENPTSYHLQQSQHQKVREYLSETYGNKFAAHISPAQGSPKPPPAASPGVRAGHVLSSSAGNSAPNSPMAMLHIGSNPERELDDVIDNIMRLDDVLGYINPEMQMPNTLPLSSSHLNVYSSDPQVTASLVGVTSSSCPADLTQKRELTDAESRALAKERQKKDNHNLIERRRRFNINDRIKELGMLIPKANDLDVRWNKGTILKASVDYIRRMQKDLQKSRELENHSRRLEMTNKQLWLRIQELEMQARVHGLPTTSPSGMNMAELAQQVVKQELPSEEGPGEALMLGAEVPDPEPLPALPPQAPLPLPTQPPSPFHHLDFSHSLSFGGREDEGPPGYPEPLAPGHGSPFPSLSKKDLDLMLLDDSLLPLASDPLLSTMSPEASKASSRRSSFSMEEGDVL | 0.4 | 1.04 |
| Δ30-TFEB, mutant TFEB construct lacking the first 30 amino acids (RagC binding site), C-terminal GFP-tagged (domain or fragment, UniProt P19484 31-476, looked up) MHYMQQQQQQQQQQLGGPPTPAINTPVHFQSPPPVPGEVLKVQSYLENPTSYHLQQSQHQKVREYLSETYGNKFAAHISPAQGSPKPPPAASPGVRAGHVLSSSAGNSAPNSPMAMLHIGSNPERELDDVIDNIMRLDDVLGYINPEMQMPNTLPLSSSHLNVYSSDPQVTASLVGVTSSSCPADLTQKRELTDAESRALAKERQKKDNHNLIERRRRFNINDRIKELGMLIPKANDLDVRWNKGTILKASVDYIRRMQKDLQKSRELENHSRRLEMTNKQLWLRIQELEMQARVHGLPTTSPSGMNMAELAQQVVKQELPSEEGPGEALMLGAEVPDPEPLPALPPQAPLPLPTQPPSPFHHLDFSHSLSFGGREDEGPPGYPEPLAPGHGSPFPSLSKKDLDLMLLDDSLLPLASDPLLSTMSPEASKASSRRSSFSMEEGDVL | 0.22 | 0.18 |
